Patent publication US20180079819A1 (IMMUNOGEN, published 2018)
Several values for one entry are separate records, joined by “and”; a condition that tells them apart may be missing. Equal values may be shown once.

Key:
[1] = biological target: T1, human CD123 (IL-3Rα, interleukin-3 receptor alpha chain) (human, UniProt P26951 19-378); assay: cell-based or functional assay
[2] = biological target: T1, human CD123 (IL-3Rα, interleukin-3 …); assay: flow cytometry on HNT-34 cells; apparent Kd
[3] = biological target: T1, human CD123 (IL-3Rα, interleukin-3 …); assay: flow cytometry on TF-1 cells; EC50 of the binding curve taken as apparent Kd
[4] = biological target: T1, human CD123 (IL-3Rα, interleukin-3 …); assay: flow cytometry on HNT-34 cells; EC50 of the binding curve taken as apparent Kd

IC50, inhibition of IL-3 dependent proliferation of TF-1 cells [1]: 0.33 nM and 0.2 nM | Kd [2]: ~2 nM | Kd [3]: 0.9 nM | Kd [4]: 2 nM
B1: 7G3 (antibody, V domains shown)
VH: EVQLQQSGPELVKPGASVKMSCKASGYTFTDYYMKWVKQSHGKSLEWIGDIIPSNGATFYNQKFKGKATLTVDRSSSTAYMHLNSLTSEDSAVYYCTRSHLLRASWFAYWGQGTLVTVSA
VL: DFVMTQSPSSLTVTAGEKVTMSCKSSQSLLNSGNQKNYLTWYLQKPGQPPKLLIYWASTRESGVPDRFTGSGSGTDFTLTISSVQAEDLAVYYCQNDYSYPYTFGGGTKLEIKR
